{"source": "patent US11981740B2", "about": "“BAFF-R antibodies and uses thereof” (CITY OF HOPE, priority 2016, dated 2024)", "key": {"[1]": {"system": "JeKo-1 (MCL), SU-DHL-6 (DLBCL), Raji (Burkitt lymphoma), and RL (FL)", "test": "Flow cytometry binding to NHL cell lines", "set-up": "species or system human", "conditions": "chimeric antibodies conjugated to Alexa Fluor 488", "description": "FIGS. 1A, 1B, 1C, 1D and 1E are FACS images showing generation and specificity of novel monoclonal antibodies against human BAFF-R. FIG. 1A is a FACS analysis of cell surface expression of hBAFF-R-GFP fusion protein in mouse fibroblast L cells. Gated on GFP-positive cells, engineered L cell clone (right plot) is compared to parental L cells (left plot). Clone D2C was selected for further studies. FIGS. 1B, 1C, 1D and 1E are FACS traces of fluorescent counts of anti-BAFF-R antibodies binding cell lines and patient samples. […] BAFF-R-negative 293T embryonic kidney cell line was used as a control. […] Parental L cells and secondary anti-hIgG-APC antibodies only were used as controls. […] The data are representative of three independent experiments. For all of FIGS. 1B-1E, the traces from top to bottom as shown in the figures correlate with the variables (e.g., antibody type or cell type) used from top to bottom shown below or next to the figures.\nFIG. 10 are results of FACS analyses showing hBAFF-R mAbs recognized non-Hodgkin lymphoma cell lines in vitro. […] The traces from top to bottom as shown in the figures correlate with the variables (e.g., antibody type or cell type) used from top to bottom shown next to the figures."}, "[2]": {"system": "BAFF-R-expressing L cells and JeKo-1", "test": "ADCC chromium-51 release assay, L cells, JeKo-1, U266", "assay_type": "cell-based", "conditions": "NK cells E:T 20:1; BAFF-R positive vs negative targets", "protocol": "Antibody-induced cytotoxicities measured by chromium-51 release after incubation with C55, C90, or rituximab and effectors (NK cells or complement containing serum). NK effector cell to target ratio (E:T) of 20:1. […] Data are shown as the mean±s.d. of triplicate samples. *P<0.05 compared with NK cells by two-tailed Student's t-test.\nFIG. 12 is a graph showing chimeric antibodies induced ADCC against BAFF-R expressing L cells. BAFF-R-expressing D2C L cells (targets) were labeled with chromium-51 followed by incubation overnight with chimeric mAb+NK cells (effector to target ratio, 20:1). Culture supernatant was analyzed for released chromium.\n(§1) Cytotoxicity assays. Target cells (L cells, human tumor lines, primary patient samples) were labeled with chromium-51 (51Cr, Perkin Elmer, Waltham, MA) for a 51Cr release assay. Briefly, antibodies and effectors (NK cells or complement serum standard [Sigma Aldrich, St. Louis, MO]), were added to labeled target cells and incubated up to 18 hours. NK cells were enriched from PBMC (NK cell enrichment kit, Stemcell Technologies, Vancouver, Canada). 51Cr released into supernatant was detected with a Wizard Automatic Gamma Counter (Perkin Elmer)."}, "Mino cells": {"system": "Mino cells", "test": "Antibody internalization by flow cytometry", "assay_type": "cell-based", "conditions": "37° C. for 1 hour", "protocol": "Mino cells were incubated with mAb C90 (0.05 μg/10^6 cells) at 4° C. for 20 minutes followed by incubation at 37° C. for 1 hour. Flow cytometry analysis was performed with anti-mouse IgG-APC. Cells were gated for surface localized antibodies (OUT) and loss of cell surface staining (IN)."}, "JeKo-1 MCL cell line": {"system": "JeKo-1 MCL cell line", "test": "In vivo JeKo-1 MCL xenograft, bioluminescence imaging", "set-up": "species or system NSG mice", "conditions": "compared with PBS or NK cells alone", "description": "(§2) FIG. 4A is a schematic showing treatment schedule following Day 0 tumor challenge with minimum lethal dose of tumors. Treatments were given by IV tail vein injections. FIGS. 4B and 4C are images showing chimeric antibodies targeting human BAFF-R elicited in vivo therapeutic effects against B-cell tumors. Bioluminescence images of mice challenged with luciferase-expressing tumors: JeKo-1 (MCL) (FIG. 4B) or RS4; 11 (ALL) (FIG. 4C). Experimental groups received treatment of chimeric BAFF-R mAbs (C55 or C90, as indicated). Control group mice received PBS, NK cells alone, or rituximab on the same schedule. Data are representative of three independent experiments.\n(§3) In vivo studies. For tumor models, stable, luciferase-expressing tumors lines were established for bioluminescent imaging in mouse models. Briefly, a luciferase gene was introduced into tumor lines by a lentivirus gene delivery system (pLenti7.3/V5-DEST Gateway Vector Kit, Life Technologies, Carlsbad, CA). The minimum lethal dose per mouse was determined for each tumor cell line by dose titration. Tumor cells were injected intravenously (IV) and mice were monitored by in vivo bioluminescence imaging for minimum tumor dose to ensure engraftment. Minimum lethal tumor doses were: 1×10^6 JeKo-1, 5×10^5 RS4; 11, 5×10^5 JeKo-1-CD20-KO, or 2.5×10^4 Z-138 cells. […]"}, "[3]": {"system": "RS4; 11 (acute lymphoblastic leukemia, ALL)", "test": "In vivo RS4;11 ALL xenograft, bioluminescence imaging", "conditions": "RS4;11 challenged NSG mice", "description": "as §2, §3"}, "[4]": {"system": "primary CLL (n=3) and MCL (n=2) samples", "test": "ADCC on primary samples from rituximab-treated patients", "assay_type": "cell-based, human", "conditions": "patients previously treated with rituximab; E:T=20:1", "protocol": "FIGS. 3A and 3B are graphs showing BAFF-R monoclonal antibodies induce in vitro Antibody Dependent Cell-Mediated Cytotoxicity (ADCC) against primary B-cell tumors. Antibody-dependent cell-mediated cytotoxicity (ADCC) effects were measured by chromium-51 release after incubation with C55, C90, or rituximab and effectors (NK cells). […] Data are shown as the mean±s.d. of triplicate samples. *P<0.05 compared with NK cells by two-tailed Student's t-test.\nas §1"}, "JeKo-1-CD20-KO clone 25": {"system": "JeKo-1-CD20-KO clone 25", "test": "ADCC on rituximab-resistant JeKo-1-CD20-KO", "assay_type": "cell-based", "conditions": "E:T=20:1", "protocol": "FIGS. 5A, 5B and 5C are images or graphs showing chimeric BAFF-R antibodies induce ADCC on drug resistant lymphoma models in vitro. FIG. 5A is a scatterplot of FACS analysis showing CD20 binding on JeKo-1 cells following CRISPR/HDR knock-out of CD20 gene. CD20 expression on selected CD20−/−clone #25 compared to WT JeKo-1. ADCC effects measured by chromium-51 release after incubation with C55, C90, or rituximab and effectors NK cells (E:T=20:1). Percentage of cell specific lysis of target cells: rituximab-resistant JeKo-1-CD20-KO (FIG. 5B) and ibrutinib-resistant Z-138 and SP49-IR (FIG. 5C). All data are representative of two or more identical experiments. Data are shown as the mean±s.d. of triplicate samples. *P<0.05 compared with NK cells by two-tailed Student's t-test.\nas §1\nGeneration of JeKo-1-CD20-KO. […]"}, "[5]": {"system": "JeKo-1-CD20-KO tumor cells", "test": "In vivo JeKo-1-CD20-KO xenograft", "set-up": "species or system NSG mice", "description": "(§4) FIGS. 6A and 6B are images and FIG. 6C are graphs showing chimeric antibodies targeting human BAFF-R elicited in vivo therapeutic effects against drug resistant B-cell tumors. Bioluminescence images of mice challenged with luciferase-expressing tumors JeKo-1-CD20-KO cells (FIG. 6A) or ibrutinib-resistant Z-138 cells (FIG. 6B) followed by antibody treatments as in FIG. 4. Control group mice received PBS, NK cells alone, or rituximab on the same schedule. […] Tumor free rate and survival differences between experimental and all control groups were analyzed by log-rank test (**P<0.001). Data are representative of three independent experiments.\nas §3"}, "[6]": {"system": "ibrutinib-resistant Z-138", "test": "In vivo ibrutinib-resistant Z-138 xenograft", "set-up": "species or system NSG mice", "conditions": "Z-138 tumor-bearing mice; compared with PBS or NK only", "description": "as §4, §3"}}}
{"molecule": "C55: chimeric anti-BAFF-R mAb from clone 55 containing human IgG1 constant regions (antibody, V domains shown) VH: QVTLKESGPGILKPSQTLSLTCSFSGFSLSTSGMGVGWIRQPSGKGLEWLAHIWWDDDKYYNSSLKSHLTISKDTSRNQVFLKITSVDTADTATYYCARSFGYGLDYWGQGTTLTVSSAS VL: DIQMTQTTSSLSASLGDRVTISCSASQDISNYLNWYQQKPDGTVKLLIYYTSSLHSGVPSRFSGSGSGTDYSLTISSLEPEDIATYYCHQFSELPWTFGGGTKLEIKRT", "values": [{"measurement": "direct binding to NHL lines", "setting": "[1]", "result": "exhibited direct binding"}, {"measurement": "antibody-dependent cell-mediated cytotoxicity (ADCC)", "setting": "[2]", "result": "specifically against BAFF-R-expressing L cells and JeKo-1, but not BAFF-R negative L cells nor the BAFF-R negative human multiple myeloma line, U266"}, {"measurement": "internalization upon binding BAFF-R", "setting": "Mino cells", "result": "limited internalization"}, {"measurement": "tumor growth", "setting": "JeKo-1 MCL cell line", "result": "significant retardation of tumor growth"}, {"measurement": "tumor growth", "setting": "[3]", "result": "markedly retarded tumor growth"}, {"measurement": "ADCC killing of primary samples", "setting": "[4]", "result": "sensitive to killing by ADCC"}, {"measurement": "sensitivity to antibody-mediated cytotoxicity", "setting": "JeKo-1-CD20-KO clone 25", "result": "retained sensitivity"}, {"measurement": "tumor free and long-term overall survival", "setting": "[5]; 80-day curves", "result": "significant antitumor effects"}, {"measurement": "tumor burden by bioluminescent imaging", "setting": "[5]; Day 20", "result": "no visible tumors"}, {"measurement": "antitumor effects", "setting": "[6]", "result": "significant effects were observed"}]}
